# Assay results reported in paper PMC10247930, “The effects of novel macrocyclic chelates on the targeting properties of the ^68Ga-labeled Gastrin releasing peptide receptor antagonist RM2” (EJNMMI Research, 2023).
# Test: in vivo
# Design: species or system BALB/c nu/nu mice
# Conditions: male, BALB/c nu/nu, mouse, iv, 2.6 MBq, total radioactivity
# Procedure: Biodistribution. BALB/c nu/nu male mice were implanted subcutaneously with 10 million PC-3 tumor cells, freshly expanded in saline. Biodistribution studies were performed 3 to 4 weeks after tumor cell inoculation when the tumor-bearing mice reached an average mass of 20 ± 3 g. Mice were injected with ^68Ga-X-RM2 (100 µL, 2.6 MBq) into the tail vein. The animals were sacrificed at 30, 60, and 120 min post-injection. Then the organs of interest were collected and weighed, and their radioactivity content was measured in a gamma counter.
structure (smiles),measurement,setting,value
"CC(C)C[C@H](NC(=O)C[C@H](O)[C@H](CC(C)C)NC(=O)[C@H](Cc1c[nH]cn1)NC(=O)CNC(=O)[C@@H](NC(=O)[C@H](C)NC(=O)[C@H](Cc1c[nH]c2ccccc12)NC(=O)[C@H](CCC(N)=O)NC(=O)[C@@H](Cc1ccccc1)NC(=O)CN1CCC(NC(=O)CN2CCN(CC(=O)O)CCN(CC(=O)O)CCN(CC(=O)O)CC2)CC1)C(C)C)C(N)=O (68Ga complex, metal not drawn) [DOTA-RM2, reference compound]",tissue to tissue ratio at 0.5 h,Tumour/blood ratio,2.35
same,tissue to tissue ratio at 1 h,Tumour/blood ratio,3.88
same,tissue to tissue ratio at 2 h,Tumour/blood ratio,4.58
same,tissue to tissue ratio at 0.5 h,Tumour/bone ratio,11.2
same,tissue to tissue ratio at 1 h,Tumour/bone ratio,8.99
same,tissue to tissue ratio at 2 h,Tumour/bone ratio,8.6
same,tissue to tissue ratio at 0.5 h,Tumour/kidneys ratio,1.53
same,tissue to tissue ratio at 1 h,Tumour/kidneys ratio,1.89
same,tissue to tissue ratio at 2 h,Tumour/kidneys ratio,2.05
same,tissue to tissue ratio at 0.5 h,Tumour/liver ratio,3.19
same,tissue to tissue ratio at 1 h,Tumour/liver ratio,3.4
same,tissue to tissue ratio at 2 h,Tumour/liver ratio,4
same,tissue to tissue ratio at 0.5 h,Tumour/muscle ratio,14.4
same,tissue to tissue ratio at 1 h,Tumour/muscle ratio,21.8
same,tissue to tissue ratio at 2 h,Tumour/muscle ratio,31.7
CC(C)C[C@H](NC(=O)C[C@H](O)[C@H](CC(C)C)NC(=O)[C@H](Cc1c[nH]cn1)NC(=O)CNC(=O)[C@@H](NC(=O)[C@H](C)NC(=O)[C@H](Cc1c[nH]c2ccccc12)NC(=O)[C@H](CCC(N)=O)NC(=O)[C@@H](Cc1ccccc1)NC(=O)CN1CCC(NC(=O)CCCCC2(N(CC(=O)O)CC(=O)O)CN(CC(=O)O)CCN(CC(=O)O)C2)CC1)C(C)C)C(N)=O [AAZTA^5-RM2],tissue to tissue ratio at 0.5 h,Tumour/blood ratio,3.53
same,tissue to tissue ratio at 1 h,Tumour/blood ratio,8.38
same,tissue to tissue ratio at 2 h,Tumour/blood ratio,15.6
same,tissue to tissue ratio at 0.5 h,Tumour/bone ratio,21.8
same,tissue to tissue ratio at 1 h,Tumour/bone ratio,36
same,tissue to tissue ratio at 2 h,Tumour/bone ratio,57.5
same,tissue to tissue ratio at 0.5 h,Tumour/kidneys ratio,1.2
same,tissue to tissue ratio at 1 h,Tumour/kidneys ratio,1.41
same,tissue to tissue ratio at 2 h,Tumour/kidneys ratio,1.31
same,tissue to tissue ratio at 0.5 h,Tumour/liver ratio,6.04
same,tissue to tissue ratio at 1 h,Tumour/liver ratio,7.55
same,tissue to tissue ratio at 2 h,Tumour/liver ratio,5.92
same,tissue to tissue ratio at 0.5 h,Tumour/muscle ratio,10.3
same,tissue to tissue ratio at 1 h,Tumour/muscle ratio,37.6
same,tissue to tissue ratio at 2 h,Tumour/muscle ratio,60.7
CC(C)C[C@H](NC(=O)C[C@H](O)[C@H](CC(C)C)NC(=O)[C@H](Cc1c[nH]cn1)NC(=O)CNC(=O)[C@@H](NC(=O)[C@H](C)NC(=O)[C@H](Cc1c[nH]c2ccccc12)NC(=O)[C@H](CCC(N)=O)NC(=O)[C@@H](Cc1ccccc1)NC(=O)CN1CCC(NC(=O)CCCCC2(N(C)CC(=O)O)CN(CC(=O)O)CCN(CC(=O)O)C2)CC1)C(C)C)C(N)=O [DATA^5m-RM2],tissue to tissue ratio at 0.5 h,Tumour/blood ratio,4.23
same,tissue to tissue ratio at 1 h,Tumour/blood ratio,14.6
same,tissue to tissue ratio at 2 h,Tumour/blood ratio,18.2
same,tissue to tissue ratio at 0.5 h,Tumour/bone ratio,16.2
same,tissue to tissue ratio at 1 h,Tumour/bone ratio,29.3
same,tissue to tissue ratio at 2 h,Tumour/bone ratio,50.2
same,tissue to tissue ratio at 0.5 h,Tumour/kidneys ratio,1.73
same,tissue to tissue ratio at 1 h,Tumour/kidneys ratio,2.2
same,tissue to tissue ratio at 2 h,Tumour/kidneys ratio,2.41
same,tissue to tissue ratio at 0.5 h,Tumour/liver ratio,5.86
same,tissue to tissue ratio at 1 h,Tumour/liver ratio,7.57
same,tissue to tissue ratio at 2 h,Tumour/liver ratio,6.09
same,tissue to tissue ratio at 0.5 h,Tumour/muscle ratio,25.4
same,tissue to tissue ratio at 1 h,Tumour/muscle ratio,56.8
same,tissue to tissue ratio at 2 h,Tumour/muscle ratio,62.2
